According to the DeepSol protein solubility set:

test: soluble on expression in E. coli; label from the status in PepcDB or PDB records

Sequence	soluble on expression in E. coli
TLSRDDAAQVAKVLSEALPYIRRFVGKTLVIKYGGNAMESEELKAGFARDVVLMKAVGINPVVVHGGGPQIGDLLKRLSIESHFIDGMRVTDAATMDVVEMVLGGQVNKDIVNLINRHGGSAIGLTGKDAELIRAKKLTVTRQTPEMTKPEIIDIGHVGEVTGVNVGLLNMLVKGDFIPVIAPIGVGSNGESYNINADLVAGKVAEALKAEKLMLLTNIAGLMDKQGQVLTGLSTEQVNELIADGTIYGGMLPKIRCALEAVQGGVTSAHIIDGRVPNAVLLEIFTDSGVGTLISNRKRH	soluble
MNNNDIEYNAPSEIKYIDVVNTYDLEEEASKVVPHGGFNYIAGASGDEWTKRANDRAWKHKLLYPRLAQDVEAPDTSTEILGHKIKAPFIMAPIAAHGLAHTTKEAGTARAVSEFGTIMSISAYSGATFEEISEGLNGGPRWFQIYMAKDDQQNRDILDEAKSDGATAIILTADSTVSGNRDRDVKNKFVYPFGMPIVQRYLRGTAEGMSLNNIYGASKQKISPRDIEEIAGHSGLPVFVKGIQHPEDADMAIKRGASGIWVSNHGARQLYEAPGSFDTLPAIAERVNKRVPIVFDSGVRRGEHVAKALASGADVVALGRPVLFGLALGGWQGAYSVLDYFQKDLTRVMQLTGSQNVEDLKGLDLFDNPYGYEY	soluble
TVHKQDGKVLEIELSSLKEALSFVSLIDGYYRLTADAHHYLCKEVAPPAVLENIHSNCHGPISMDFAISKLKKAGNQTGLYVLRCSPKDFNKYFLTFAVERENVIEYKHCLITKNENGEYNLSGTKRNFSNLKDLLNCYQMETVRSDSIIFQFTKCCPPKPKDKSNLLVFRTNGISDVQISPTLQRHNNVNQMVFHKIRNEDLIFNESLGQGTFTKIFKGVRREVGDYGQLHKTEVLLKVLDKAHRNYSESFFEAASMMSQLSHKHLVLNYGVCVCGEENILVQEFVKFGSLDTYLKKNKNSINILWKLGVAKQLAWAMHFLEEKSLIHGNVCAKNILLIREEDRRTGNPPFIKLSDPGISITVLPKDILQERIPWVPPECIENPKNLNLATDKWSFGTTLWEICSGGDKPLSALDSQRKLQFYEDKHQLPAPKWTELANLINNCMDYEPDFRPAFRAVIRDLNSLFTPDYELLTENDMLPNMRIGALGFSGAFEDRDPTQFEERHLKFLQQLGKGNFGSVEMCRYDPLQDNTGEVVAVKKLQHSTEEHLRDFEREIEILKSLQHDNIVKYKGVCYSAGRRNLRLIMEYLPYGSLRDYLQKHKERIDHKKLLQYTSQICKGMEYLGTKRYIHRDLATRNILVENENRVKIGDFGLTKVLPQDKEYYKVKEPGESPIFWYAPESLTESKFSVASDVWSFGVVLYELFTYIEKSKSPPVEFMRMIGNDKQGQMIVFHLIELLKSNGRLPRPEGCPDEIYVIMTECWNNNVSQRPSFRDLSLRVDQIRDSIAA	not soluble
MGSDKIHHHHHHYLFQTYGSNKGEIIECKNCYCFKDQWNNIKNNPSINKNAKVLSCWLYYDKASPKPALKIMLINKNKFHRFQYVDAICKNDEIVLEFNGTYKNLENEFSKGISTDEFMTSLDTVWKNAHNIFKTPSSKYSLFVTSKHSNSITKQSNAFYIGKNGALTKISEKDFPLNDVNYMNCSKLDEQDKSSENACIIFK	not soluble
MKNIHSIEFYTGSKEELLPDFEKDFPYIASRAELDKYIGGYVPWHWHRTVELFYMESGSIEYDTPGGKILFPAGSGGMINPNVLHMTKAISQREKNIQLLHIFDVSLLAGEQGSRIEQKYIAPVITAPQIEVIPLFPGNAEEERILKLLAASFRLSSDEFGYEIKLREALTEIWLMLFELSCSMREKKGEHNKSNDKIKLMMIYIHEHYREKISILELAAAAYLSERECYRVFHDCLHMTPVEYITTYRLQIACQMLAKGQEPITVISHECGLGSSSYFGKVFREYAYCSPTEYRKKWQNSDM	soluble
MSSSAAKYDVFQAIADPTRREVIRLLSDKELPISKITDHFPMSRTAVVKHLHILSEANLVSGRKSGREKIYRLHPEPLEELQQWLSYYERFWDNKLSMLKHIVENEE	not soluble
MAHHHHHHGPNTNPVAAWKALKEGNERFVAGRPQHPSQSVDHRAGLAAGQKPTAVIFGCADSRVAAEIIFDQGLGDMFVVRTAGHVIDSAVLGSIEYAVTVLNVPLIVVLGHDSCGAVNAALAAINDGTLPGGYVRDVVERVAPSVLLGRRDGLSRVDEFEQRHVHETVAILMARSSAISERIAGGSLAIVGVTYQLDDGRAVLRDHIGNIGEEV	soluble
MDWKITIFTYNLAMKASDSEAVHNMLNGMIDDHTHLVAIGLQEVAHSETIGGAVLTWATTIASWMNTNGRMVLLAKTFQATNQVLIFGRKQLIGQIKRIDYRFQRNTMGGLTGHKGSIGVRLQLASPYSIVFVDSHFIHGPENYGKRVEQYHTNRNCSFPEDKSVRAAFWFGDFNFRVEEDVNTVIRKIKNGTHLELLDTREQLKRALVERDAFIGFHEQPVTFEPTYRVTVGTTEQDGKRVPSWTDRILYKGDGITGLSYTNNKKAVASDHLPVVAMFRVTAPAAPKPQWEVIFEHLPTWYTSIPLVGRFQVNELYYKENGSYRDWIGVFPSSINDCTTATNWIYAATCFEQVIEGSKFLACEFNNIPAGNYRLGYFSCHLHCLVGLSKVFQIVEQP	not soluble
MTENNVDPYEVVKKRYESTVDSFVLSDLFQPTLESNQELIDDVKDNRLVIYTAFTGNYDELKEPEFIDENCDYVCFTENPDLESDTWEIVQMEKSTLDDNRKAKQYRLFTDKYFPEYKYSFWLDGTFKIVGSIREYIYKYAKSKMLVVVHPERDCIYDEAVMSMPFPRYSNYTMTKQVEKYRSEGMPEHYGLPATGALFRAHNDPEIISIMRQWWREVVNYTNQDQLSLPYVMWKNNFHPSVSDVYYWVNEYWSKEGSYQHNFEIEDYITSRNLIESLEGNIKDKNTLTKEEINLLFNDIDALRDEANALNIARDHWDRQIRGVRNSTSWLEHHHHHH	soluble
MGSDKIHHHHHHMGQGTDSMSKRGRVYIIGAGPGDPGLMTVKGTKCLAEADVVIYDHLINPGILHHARETARLVYAGKEGGKHTLSQEEINARLVSEAQQGHVVARLKGGDPFIFGRGGEEAEVLAREGIPFEIVPGVTSAIAVASYAGIPLTHRRHTATLAFVTGHEDPLKGQSEIDWKALAGIGTLVFLMGVRNLSRIAAGLIAQGKKPETPAALIRWGTTANQETLVGTLENIADLAEAAGFAPPAILVVGGVVGLRKELNWFETRPLFGKGIVITRPESQAESLAALLEDAGARVISFPTIQIVAPESWEGLDSAIRRLEDYAWLIFTSANGVRFFLERLYVTGKDVRDLKGIRLCTIGPATAAALENRGLRVDLVPETYLSEGVVAAFERVAISGQRILLPRAEKARDVIPEGLTRQGAVVDVVSAYRTVNSGRDRSELVELIAQRRVDVLTFTSPSTVTNFLEIMGPDFLPLPAGIRVACIGPVTAAAAEKAGLPVDILQEIYTIPGLVESLKVFLAKDKPH	not soluble
MAGDPMKIYFEAYGCTLNQGETALYVNKLLNEGNTLVSNPKEADLSIIGTCAVIKKTEDHMMARIQNLSRFGKVEVIGCLAPVKGKTMVEDNVSVIEKDRFRSFQEVIDEVSPVNAEIVSGIPINQGCTGKCNFCVSHIARGKLVSRKPEKIAGQIKILLQRGIKEIKITSLDTAAYGKDIGLRLPHLIRTITEIGDDFRLRVGMMEPKNTLEIVDDLISAYRSEKVFKFLHLPVQSGDDYVLEVMNREYTVSDFIRITGKFREAFPDSTLSTDLIIGYYAENDDSFEKTVQLIEKIRPEIINVTKFSPRELTADFEKRPKPTNILKEQDRMIADMHKEILQEKFSNLIGKTEFVLITENGKGRSMIGRDHAYRPIVIMDKTRKFEFHQVEITGFENTSLIGRIIDLEHHHHHH	not soluble
MAHHHHHHMLRLCRVSLRVQSHQKKRAQHPNAGTRFGRVYNRGFIRYGFGGFGMSVYTPKKDRRFRVQPLPSLHANSLADDTPLVTTTRTLSPNFRAFALQDGGVFFTHPSHEQVMRVGQNILAEETKATGMTSMDTYVNSRIQSIIAENTVENVALSHWRRRHMWNLVRTHGKLQRHWGVSDATKGARSNIYGRPS	not soluble
MGSDKIHHHHHHMVEELLGKALARKRSLRKDETIDVFNRVTYFFPKDFVITNYPRNPVAVFNPGAVLVGKALHVFPRLIFDYYKYVSSIGHFIVNIDDLLNGEVKKPLEMEVVFWPRDIQEFLGCEDPRVFFRNSRFELLYTAKGYKDWSQEGKPHTDFLAYAVLDEDLNLIEKRYISIKSTLGEYVPVSMKDSSFVESKVILTRLTVGDAKVCWRGRLEGSYIDLYSLDPVFFPEEWETKVGWSTNTVEVKEGYLVGWHAVLKDLTYKNGLALVDGRGRLLGTTNYVLSPKGVIEEYGDRIRVIFGCGLVVYGGRVIWIGGVSDWAIGVFETSEREIMNLMKEAT	not soluble
MGSDKIHHHHHHMYTIAIDLGGTVVKIGLLSDGEIVDCVRLPSRLALGLALNLPKIKEAIDRLLAAWRIDVAALRCIGLAFPGLVDPIHNRVISTNEKYDDACSISLDKWAWENWEVPFCMDNDARLAVAGEWWQGAARGKNNVVMMTIGTGIGTGVVIDGRLLYGQHFQAGSLGGHFVLDYKGRRCSCGNKGCVEALSSSFFLPTIIREHALLSESFKRDADIYDFKRIFRLAQEGNTDALLIRNECMDIWASAIITYIHAYDPEVVILGGGILKSQEVIIPYISKRVDELAWCPSGKVPVVPAILGDDAALFGLEYFMVKQQQNERICI	not soluble
MGSDKIHHHHHHMAVSAKYDEFNHWWATEGDWVEEPNYRRNGMSGVQCVERNGKKLYVKRMTHHLFHSVRYPFGRPTIVREVAVIKELERAGVIVPKIVFGEAVKIEGEWRALLVTEDMAGFISIADWYAQHAVSPYSDEVRQAMLKAVALAFKKMHSINRQHGCCYVRHIYVKTEGNAEAGFLDLEKSRRRLRRDKAINHDFRQLEKYLEPIPKADWEQVKAYYYAM	not soluble
MNKYDIAVIGGGMVGAAVAVGFAKQGRSVVVVEGAEPKAFDAAQALDVRVSAISHQSVKLLESLDAWSAIEAMRVCPYRRLETWEHPECRTRFHSDELSLDQLGYIVENRLIQLGLWQAFAQFDNLTVKCPERLKDIDFNDGNRITLESGEQFDANWIIGADGANSKVRQLAGIGVTAWDYRQHCMLINVKTELPQQDITWQQFTPSGPRSFLPLCSLTEDGQEVGQGSLVWYDSPKRIKQLCAMTKPQLREEIVRHFPKELGDIEVLQFGSFPLTRRHAQSYSHRGCVLVGDSAHTINPLAGQGVNLGFKDVDVLLSVTQGQDELTDALLAKYERTRRPDNLLMQTGMDFFYKGFSNDLGPLKFARNAALKLAENSGPIKAQVLKYALGMLEHHHHHH	not soluble
GPGSMSAETLACTYAALMLSDAGLPTSAENIAAAVKAAGVEMRPTLPIIFARFLEKKSVETLMAAAAAQAPTAASAPSPAAGAASAAAAGGKVEDKKKDEPEEEGDDDMGFGLFD	soluble
EKGFKVVVLESAKVGFGATGRNGGQIVNSYSRDVDVIESRYDQNQAKALCDMIFEGGDIIRGLIDKYDINCDYKQGGLFTALNSKQLKGLEEHKKNWERYGNDQLTLLDAGEVEQAVGTKVYTGGLLDMRGGHIHPLKLALGEAAAFISLGGQIFEQSAVVSIDKGMNPVVKTAQGSVKSK	not soluble
MPLTFAHSFADAVPSLSVPWRAEQWPDPRIIVFNHELGQELGIDEASLLSNITQQGHAQAYSGHQFGQFNPLLGDGRALVLGDCAQTNAPHGQFEISLKGSGPTPFARRGDGRATLGPMLREYLISEALHGLGIPTTRSLAVITTGTDVQRERLLPGAVVVRVAQNHLRVGSVQCAAMRDDDSLAALVRYALSSHEDGVSDAEAAGLLLRRVSTSQAKLVAQWMRFGFVHGVMNTDNVTLSGQTIDFGPCAFIDSFHPQAVFSSIDSHGRYSFGRQPSIMGWNIARLAEALLPLMSIDEARNIVHEFPDMYRRSWLDEMADAVGISPDDDHAAGVLDDLVALLDVHRPDYAQFMRSLSDGTTVSLFPWAQQWEAEVSSLRVAAPRNPVYVPRNYLVEDALEHAMNADMSVFSLLVEAGKNPYLREKRFEKLENPAPETWQDYVTYCGT	not soluble
